According to patent US20240024479A1, “NK CELLS OR T CELLS EXPRESSING CHIMERIC HEMATOPOIETIC GROWTH FACTOR RECEPTORS AND METHODS OF USE” (The United States of America, as represented by the …, priority 2020, published 2024):
Each block holds one molecule with its values, some of them ahead of it.

Tests used:
[1] = molecular target: human thrombopoietin receptor (c-MPL) expressed on transduced NK or T cells (human) (UniProt P40238); test: cell-based or functional assay
[2] = system: c-MPL transduced NK cells; test: Proliferation of c-MPL-expressing human NK cells with thrombopoietin mimetics; assay type: cell-based; details: 4-5 days culture
Procedure: FIGS. 16A-16C show proliferation of human NK cells transduced to express GFP and c-MPL cultured for 4-5 days with the indicated concentrations of thrombopoietin (FIG. 16A), romiplostim (FIG. 16B), or eltrombopag (FIG. 16C). […] Mean and SEM of results from 3 blood donors are shown.
NK cells from PBMC from three blood donors were stimulated and transduced to express GFP and c-MPL, then were cultured for 4-5 days with thrombopoietin, romiplostim, or eltrombopag.

[3] = system: NK cells transduced to express MPL or MPL-IL2RB chimeric receptors; test: Phospho-STAT5 and phospho-S6 signaling in transduced NK cells; assay type: cell-based, human
K562 target cells = test: Degranulation and cytokine production of NK cells expressing MPL-IL2RB or MPL with K562 targets; assay type: cell-based, human; details: for degranulation of cytotoxic granules in response to K562 target cells: 4-day exposure to eltrombopag or romiplostim; for production of IFN-gamma and TNF: culture with eltrombopag or romiplostim and exposure to K562 targets
Procedure: To examine degranulation, cells were washed after two hours and stained with anti-CD107a (H4A3) (BioLegend). To assay cytokine production, GolgiPlug and GolgiStop (BD Biosciences) were added at manufacturer's recommended concentrations within the first hour of co-culture with K562. After 4 hours, cells were washed and stained for cell surface markers, then stained intracellularly with mAb recognizing TNF-α (Mab 11) and IFN-γ (B27) (BD Biosciences).
(§1) In vitro cell culture experiments with human NK cells expressing MPL-IL2RB: Approximately 2-4 days after transduction, NK cells were placed in culture with varied concentrations of eltrombopag (Selleckchem, TX, USA) or romiplostim (Amgen, CA, USA); where concentrations are not indicated, 0.33 ug/mL eltrombopag or 1.5 ng/mL romiplostim were used. Medium and drugs were refreshed by addition of new medium or by changing half the culture volumes every 2-4 days. Numbers of GFP^+ cells were quantitated after 4-6 days (or indicated durations) using a BD Fortessa flow cytometer (BD Biosciences, NJ, USA) and compared with initial numbers to determine the fold expansion.

Human NK cells = test: Matrix of IL-2 and eltrombopag concentrations, NK cell numbers after 6 days; assay type: cell-based; details: for proliferation in the presence of eltrombopag at high IL-2 concentrations compared with IL-2 alone: 6 days
Procedure: as §1

primary human NK cells [4] = test: Time course of survival/proliferation of NK cells expressing MPL-IL2RB (retroviral); assay type: cell-based; details: varied concentrations of eltrombopag, romiplostim or thrombopoietin; retroviral vectors
Excerpt: (§2) Lentiviral and retroviral vectors expressing MPL-IL2RB and other chimeric MPL receptors: Lentiviral vectors were created by Vectorbuilder (IL, USA) by insertion of DNA sequences encoding EGFP and chimeric molecules including extracellular, transmembrane, and in some cases, proximal intracellular regions of human MPL (NM_005373.3) fused with partial intracellular domains from human IL2RB (NM_000878.5) using the linkages as shown in FIG. 17. Certain of these chimeric receptor sequences were also inserted into a gamma retroviral vector backbone also encoding EGFP or firefly luciferase. Analogous vectors encoding unmodified MPL (NM_005373.3) were used for comparison. […]
as §1, with “Medium and drugs were refreshed by addition of new medium or by changing half the culture volumes every 2-4 days.” left out

primary human NK cells [5] = test: Chimeric MPL-IL2RB constructs (lentiviral) in primary human NK cells, cell numbers with MPL ligands; assay type: cell-based; details: after 4 days; medium lacking cytokines; lentiviral vectors
Excerpt: as §2
as §1, with “Medium and drugs were refreshed by addition of new medium or by changing half the culture volumes every 2-4 days.” left out

Bcl-2 RMFI in c-MPL+ NK-92 cells with TPO [1]: 64.5 RMFI
Bcl-xL RMFI in c-MPL+ NK-92 cells with TPO [1]: 4.52 RMFI
CD107a degranulation of GFP+ MPL+ primary NK cells against K562, TPO plus 25 U/ml IL-2 [1]: 83%
GFP fold-expansion of c-MPL transduced primary T cells, TPO alone, day 6 [1]: 5.96 fold
average percentage of GFP+ MPL+ cells among recovered human cells in blood and spleen of TPO-treated NSG mice (about 10% injected) [1]: 15%
average percentage of GFP+ MPL+ cells among recovered human cells in liver and lung of TPO-treated NSG mice (about 10% injected) [1]: 20%
expansion of c-MPL+ activated T cells, TPO plus LD IL-2, day 6 [1]: 6 to 11.4 fold
fold change of GFP+ c-MPL+ primary NK cells, TPO plus 10 U/ml IL-2, day 6 [1]: 24.3 fold
fold change of GFP+ c-MPL+ primary NK cells, TPO plus 25 U/ml IL-2, day 6 [1]: 34.1 fold
fold expansion of c-MPL+ NK-92 cells with TPO alone, day 8 [1]: 7 fold
fold expansion of c-MPL+ NK-92 cells, TPO plus 1 U/ml IL-2, day 8 [1]: 23.2 fold
mean percentage of dead Raji cells, c-MPL+ NK-92 cells exposed to TPO plus LD IL-2, E:T 1:1 [1]: 84%
mean percentage of dead Raji cells, c-MPL+ NK-92 cells exposed to TPO plus LD IL-2, E:T 10:1 [1]: 85%
pS6 expression (RMFI) in c-MPL+ NK-92 cells, TPO plus LD IL-2 [1]: 11.8 RMFI
percentage of GFP+ MPL+ cells in parallel in vitro cultures of the mixed cells with only TPO [1]: 31%
Molecule: recombinant human thrombopoietin (rhTPO) (from UniProt P40225 22-353) (ligand)

Molecule: romiplostim
proliferation of c-MPL transduced NK cells [2]: induce proliferation
phosphorylated ribosomal protein S6 responses (mTOR activation) ([3]; NK cells expressing either MPL-IL2RB or MPL): induced
phosphorylated STAT5 ([3]; eltrombopag 0.33 μg/ml or romiplostim 1.5 ng/mL, compared with 5 U/mL IL-2): shorter dilution pSTAT5 response

B1: MPL-IL2RB: chimeric receptor, SEQ ID NO: 8 (amino acids 1-582, c-MPL; amino acids 583-801, IL2RB) (protein)
chain: MPSWALFMVTSCLLLAPQNLAQVSSQDVSLLASDSEPLKCFSRTFEDLTCFWDEEEAAPSGTYQLLYAYPREKPRACPLSSQSMPHFGTRYVCQFPDQEEVRLFFPLHLWVKNVFLNQTRTQRVLFVDSVGLPAPPSIIKAMGGSQPGELQISWEEPAPEISDFLRYELRYGPRDPKNSTGPTVIQLIATETCCPALQRPHSASALDQSPCAQPTMPWQDGPKQTSPSREASALTAEGGSCLISGLQPGNSYWLQLRSEPDGISLGGSWGSWSLPVTVDLPGDAVALGLQCFTLDLKNVTCQWQQQDHASSQGFFYHSRARCCPRDRYPIWENCEEEEKTNPGLQTPQFSRCHFKSRNDSIIHILVEVTTAPGTVHSYLGSPFWIHQAVRLPTPNLHWREISSGHLELEWQHPSSWAAQETCYQLRYTGEGHQDWKVLEPPLGARGGTLELRPRSRYRLQLRARLNGPTYQGPWSSWSDPTRVETATETAWISLVTALHLVLGLSAVLGLLLLRWQFPAHYRRLRHALWPSLPDLHRVLGQYLRDTAALSPPKATVSDTCEEVEPSLLEILPKSSERTPLPLVTQLLLQQDKVPEPASLSSNHSLTSCFTNQGYFFFHLPDALEIEACQVYFTYDPYSEEDPDEGVAGAPTGSSPQPLQPLSGEDDAYCTFPSRDDLLLFSPSLLGGPSPPSTAPGGSGAGEERMPPSLQERVPRDWDPQPLGPPTPGVPDLVDFQPPPELVLREAGEEVPDAGPREGVSFPWSRPPGQGEFRALNARLPLNTDAYLSLQELQGQDPTHLV
degranulation of cytotoxic granules in response to K562 target cells (K562 target cells): augmented degranulation
production of IFN-gamma and TNF (K562 target cells): augmented production
proliferation in the presence of eltrombopag at high IL-2 concentrations compared with IL-2 alone (Human NK cells): comparable numbers
NK cell numbers after 6 days (Human NK cells; low concentrations of IL-2, with eltrombopag): greater numbers
fold change in cell numbers (primary human NK cells [4]): greater fold change in cell numbers
intracellular signals (pSTAT5, pS6) induced via receptor ([3]; compared with MPL): comparable to those triggered by MPL
NK cell numbers in presence of eltrombopag or romiplostim (primary human NK cells [5]): greater cell numbers than MPL-expressing NK cells

B2: MPL: unmodified human MPL (NM_005373.3), SEQ ID NO: 1, expressed in NK cells for comparison (protein, listed as Homo sapiens)
chain: MPSWALFMVTSCLLLAPQNLAQVSSQDVSLLASDSEPLKCFSRTFEDLTCFWDEEEAAPSGTYQLLYAYPREKPRACPLSSQSMPHFGTRYVCQFPDQEEVRLFFPLHLWVKNVFLNQTRTQRVLFVDSVGLPAPPSIIKAMGGSQPGELQISWEEPAPEISDFLRYELRYGPRDPKNSTGPTVIQLIATETCCPALQRPHSASALDQSPCAQPTMPWQDGPKQTSPSREASALTAEGGSCLISGLQPGNSYWLQLRSEPDGISLGGSWGSWSLPVTVDLPGDAVALGLQCFTLDLKNVTCQWQQQDHASSQGFFYHSRARCCPRDRYPIWENCEEEEKTNPGLQTPQFSRCHFKSRNDSIIHILVEVTTAPGTVHSYLGSPFWIHQAVRLPTPNLHWREISSGHLELEWQHPSSWAAQETCYQLRYTGEGHQDWKVLEPPLGARGGTLELRPRSRYRLQLRARLNGPTYQGPWSSWSDPTRVETATETAWISLVTALHLVLGLSAVLGLLLLRWQFPAHYRRLRHALWPSLPDLHRVLGQYLRDTAALSPPKATVSDTCEEVEPSLLEILPKSSERTPLPLCSSQAQMDYRRLQPSCLGTMPLSVCPPMAESGSCCTTHIANHSYLPLSYWQQP
degranulation of cytotoxic granules in response to K562 target cells (K562 target cells): augmented degranulation
production of IFN-gamma and TNF (K562 target cells): augmented production
proliferation in the presence of eltrombopag at high IL-2 concentrations compared with IL-2 alone (Human NK cells): deficit in proliferation
NK cell numbers in presence of eltrombopag or romiplostim (primary human NK cells [5]): greater cell numbers
